The target of the series is T1, PUF4 RNA-binding domain (Saccharomyces cerevisiae, UniProt P25339 537-888).
T1 sequence: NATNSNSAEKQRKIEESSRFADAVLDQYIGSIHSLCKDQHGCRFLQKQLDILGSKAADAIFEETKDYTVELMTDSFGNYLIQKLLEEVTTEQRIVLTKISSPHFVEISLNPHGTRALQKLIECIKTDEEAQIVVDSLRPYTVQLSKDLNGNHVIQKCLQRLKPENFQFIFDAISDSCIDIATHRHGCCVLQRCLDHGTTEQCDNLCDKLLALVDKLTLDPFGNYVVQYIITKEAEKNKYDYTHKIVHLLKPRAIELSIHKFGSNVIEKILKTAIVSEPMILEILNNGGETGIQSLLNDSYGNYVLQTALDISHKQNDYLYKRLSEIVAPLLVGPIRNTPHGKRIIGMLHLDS
The series can be described thus: Mg; RNA-MaP; 20 mM Na-HEPES pH 7.4, 30 mM KOAc, 0.75 mM MgCl2, 0.1% Tween-20, 5% glycerol, 0.1 mg/mL BSA, 2 mM DTT; 25 C; 0.0125-409.6 nM protein. Conditions: tags: N-His6-TEV cleaved; C-SNAP kept, Cy3B-labelled; label: tethered on chip by stalled RNA polymerase.

Experimental findings from publication PMC9352680, “A comprehensive thermodynamic model for RNA binding by the Saccharomyces cerevisiae Pumilio protein PUF4” are described below.

The term Kd denotes the equilibrium constant for the complex coming apart. A higher Kd goes with a looser complex. As for UCUCUUUGUACCUAUCUCUU (ssRNA) [Ib_S1_P3E.1_K3.1_C3.1_H3.1_A3.1_[T5C]_[A6C]_F3.1_T3.1], the Kd stood at 86.7 nM.

B1: Ic_S2_P4E.1_K4.1_C4.1_H4.1_A4.1_[T5C]_[A6T]_F4.1_[T8A]_T4.1 (ssRNA)
RNA: UUUGAUUAAUAUGAUAUCGUUCUUUCUUGUACUUAAUUCUUUCUCGAUAUCAUAUUAAUCUUU
B1 displayed a dissociation constant Kd of 22.9 nM.

B2: Ic_S2_P4E.1_K4.1_C4.1_H4.1_A4.1_[T5C]_F4.1_[T8C]_[A9G]_T4.1 (ssRNA)
RNA: UUUGAUUAAUAUGAUAUCGUUCUUUCUUGUACAUCGUUCUUUCUCGAUAUCAUAUUAAUCUUU
Molecule B2 registered a Kd of 22.3 nM.

B3: Ic_S2_P4E.1_K4.1_C4.1_H4.1_A4.1_[T5A]_[A6C]_[T7C]_F4.1_[A9T]_T4.1 (ssRNA)
RNA: UUUGAUUAAUAUGAUAUCGUUCUUUCUUGUAACCUUUUCUUUCUCGAUAUCAUAUUAAUCUUU
In turn, B3 came in with a Kd of 24.6 nM.

B4: Ic_S2_P4E.1_K4.1_C4.1_H4.1_A4.1_[T5C]_[T7A]_F4.1_[T8C]_T4.1 (ssRNA)
RNA: UUUGAUUAAUAUGAUAUCGUUCUUUCUUGUACAACAUUCUUUCUCGAUAUCAUAUUAAUCUUU
On to B4, for which the affinity, expressed as Kd, was 17.4 nM.

B5: Ic_S2_P4E.1_K4.1_C4.1_H4.1_A4.1_[T5A]_[A6C]_[T7G]_F4.1_[T8C]_[A9T]_T4.1 (ssRNA)
RNA: UUUGAUUAAUAUGAUAUCGUUCUUUCUUGUAACGCUUUCUUUCUCGAUAUCAUAUUAAUCUUU
B5 came in with an equilibrium dissociation constant (Kd) of 190 nM.

B6: Ic_S2_P4E.1_K4.1_C4.1_H4.1_A4.1_[T5A]_[A6C]_[T7C]_F4.1_[T8A]_[A9C]_T4.1 (ssRNA)
RNA: UUUGAUUAAUAUGAUAUCGUUCUUUCUUGUAACCACUUCUUUCUCGAUAUCAUAUUAAUCUUU
In turn, B6 returned a dissociation constant (Kd) of 1570 nM.

B7: Ic_S2_P4E.1_K4.1_C4.1_H4.1_A4.1_[T5C]_[A6T]_F4.1_[A9C]_T4.1 (ssRNA)
RNA: UUUGAUUAAUAUGAUAUCGUUCUUUCUUGUACUUUCUUCUUUCUCGAUAUCAUAUUAAUCUUU
Molecule B7 registered a Kd of 13.3 nM.

B8: Ic_S2_P4E.1_K4.1_C4.1_H4.1_A4.1_[T5C]_[T7C]_F4.1_[T8A]_T4.1 (ssRNA)
RNA: UUUGAUUAAUAUGAUAUCGUUCUUUCUUGUACACAAUUCUUUCUCGAUAUCAUAUUAAUCUUU
Molecule B8 yielded a dissociation constant Kd of 13.8 nM.

B9: Ic_S2_P4E.1_K4.1_C4.1_H4.1_A4.1_[T5C]_[A6T]_F4.1_[A9T]_T4.1 (ssRNA)
RNA: UUUGAUUAAUAUGAUAUCGUUCUUUCUUGUACUUUUUUCUUUCUCGAUAUCAUAUUAAUCUUU
As to B9, the affinity, expressed as Kd, was 9.78 nM.

B10: Ic_S2_P4E.1_K4.1_C4.1_H4.1_A4.1_[T5A]_[A6C]_[T7C]_F4.1_[T8C]_T4.1 (ssRNA)
RNA: UUUGAUUAAUAUGAUAUCGUUCUUUCUUGUAACCCAUUCUUUCUCGAUAUCAUAUUAAUCUUU
For the molecule B10, the dissociation constant Kd stood at 666 nM.

B11: Ic_S2_P4E.1_K4.1_C4.1_H4.1_A4.1_[T5C]_[T7G]_F4.1_[A9T]_T4.1 (ssRNA)
RNA: UUUGAUUAAUAUGAUAUCGUUCUUUCUUGUACAGUUUUCUUUCUCGAUAUCAUAUUAAUCUUU
Turning to B11, binding was put at a Kd of 9.39 nM.

B12: Ic_S2_P4E.1_K4.1_C4.1_H4.1_A4.1_[T5A]_[A6C]_[T7G]_F4.1_[T8G]_[A9T]_T4.1 (ssRNA)
RNA: UUUGAUUAAUAUGAUAUCGUUCUUUCUUGUAACGGUUUCUUUCUCGAUAUCAUAUUAAUCUUU
Molecule B12 returned a Kd of 1410 nM.

B13: Ic_S2_P4E.1_K4.1_C4.1_H4.1_A4.1_[T5C]_[T7C]_F4.1_[A9T]_T4.1 (ssRNA)
RNA: UUUGAUUAAUAUGAUAUCGUUCUUUCUUGUACACUUUUCUUUCUCGAUAUCAUAUUAAUCUUU
As for B13, binding was characterised by a dissociation constant (Kd) of 2.92 nM.

B14: Ic_S2_P4E.1_K4.1_C4.1_H4.1_A4.1_[T5C]_F4.1_[T8C]_[A9C]_T4.1 (ssRNA)
RNA: UUUGAUUAAUAUGAUAUCGUUCUUUCUUGUACAUCCUUCUUUCUCGAUAUCAUAUUAAUCUUU
B14 had a Kd of 12.3 nM.

B15: Ic_S2_P4E.1_K4.1_C4.1_H4.1_A4.1_[T5C]_F4.1_[T8A]_[A9C]_T4.1 (ssRNA)
RNA: UUUGAUUAAUAUGAUAUCGUUCUUUCUUGUACAUACUUCUUUCUCGAUAUCAUAUUAAUCUUU
With B15, the equilibrium dissociation constant (Kd) worked out at 4.76 nM.

B16: Ic_S2_P4E.1_K4.1_C4.1_H4.1_A4.1_[T5A]_[A6C]_[T7A]_F4.1_[T8A]_[A9T]_T4.1 (ssRNA)
RNA: UUUGAUUAAUAUGAUAUCGUUCUUUCUUGUAACAAUUUCUUUCUCGAUAUCAUAUUAAUCUUU
With B16, the equilibrium dissociation constant (Kd) is 45.2 nM.

B17: Ic_S2_P4E.1_K4.1_C4.1_H4.1_A4.1_[T5A]_[A6C]_[T7G]_F4.1_T4.1 (ssRNA)
RNA: UUUGAUUAAUAUGAUAUCGUUCUUUCUUGUAACGUAUUCUUUCUCGAUAUCAUAUUAAUCUUU
Regarding B17, the dissociation constant (Kd) was determined as 11 nM.

B18: Ic_S2_P4E.1_K4.1_C4.1_H4.1_A4.1_[T5A]_[A6C]_[T7C]_F4.1_[T8C]_[A9C]_T4.1 (ssRNA)
RNA: UUUGAUUAAUAUGAUAUCGUUCUUUCUUGUAACCCCUUCUUUCUCGAUAUCAUAUUAAUCUUU
In turn, B18 displayed a Kd of 582 nM.

B19: Ic_S2_P4E.1_K4.1_C4.1_H4.1_A4.1_[T5C]_[T7A]_F4.1_[T8C]_[A9G]_T4.1 (ssRNA)
RNA: UUUGAUUAAUAUGAUAUCGUUCUUUCUUGUACAACGUUCUUUCUCGAUAUCAUAUUAAUCUUU
B19 showed a dissociation constant Kd of 55.1 nM.

B20: Ic_S2_P4E.1_K4.1_C4.1_H4.1_A4.1_[T5C]_[T7C]_F4.1_[A9G]_T4.1 (ssRNA)
RNA: UUUGAUUAAUAUGAUAUCGUUCUUUCUUGUACACUGUUCUUUCUCGAUAUCAUAUUAAUCUUU
For the molecule B20, the Kd was found to be 2.73 nM.

B21: Ic_S2_P4E.1_K4.1_C4.1_H4.1_A4.1_[T5A]_[A6C]_[T7C]_F4.1_[T8C]_[A9G]_T4.1 (ssRNA)
RNA: UUUGAUUAAUAUGAUAUCGUUCUUUCUUGUAACCCGUUCUUUCUCGAUAUCAUAUUAAUCUUU
For B21, binding was characterised by a dissociation constant (Kd) of 742 nM.

B22: Ic_S2_P4E.1_K4.1_C4.1_H4.1_A4.1_[T5C]_[T7A]_F4.1_[A9G]_T4.1 (ssRNA)
RNA: UUUGAUUAAUAUGAUAUCGUUCUUUCUUGUACAAUGUUCUUUCUCGAUAUCAUAUUAAUCUUU
Molecule B22 gave a Kd of 7.25 nM.

B23: Ic_S2_P4E.1_K4.1_C4.1_H4.1_A4.1_[T5A]_[A6C]_[T7A]_F4.1_[T8G]_[A9C]_T4.1 (ssRNA)
RNA: UUUGAUUAAUAUGAUAUCGUUCUUUCUUGUAACAGCUUCUUUCUCGAUAUCAUAUUAAUCUUU
Regarding B23, the affinity, expressed as Kd, was 777 nM.

B24: Ic_S2_P4E.1_K4.1_C4.1_H4.1_A4.1_[T5A]_[A6C]_[T7G]_F4.1_[T8C]_T4.1 (ssRNA)
RNA: UUUGAUUAAUAUGAUAUCGUUCUUUCUUGUAACGCAUUCUUUCUCGAUAUCAUAUUAAUCUUU
For the molecule B24, binding was put at a Kd of 747 nM.

B25: Ic_S2_P4E.1_K4.1_C4.1_H4.1_A4.1_[T5C]_[A6T]_F4.1_[A9G]_T4.1 (ssRNA)
RNA: UUUGAUUAAUAUGAUAUCGUUCUUUCUUGUACUUUGUUCUUUCUCGAUAUCAUAUUAAUCUUU
As to B25, binding was put at a Kd of 13.1 nM.

B26: Ic_S2_P4E.1_K4.1_C4.1_H4.1_A4.1_[T5C]_[T7A]_F4.1_[T8C]_[A9C]_T4.1 (ssRNA)
RNA: UUUGAUUAAUAUGAUAUCGUUCUUUCUUGUACAACCUUCUUUCUCGAUAUCAUAUUAAUCUUU
Regarding B26, the Kd came to 87.7 nM.

B27: Ic_S2_P4E.1_K4.1_C4.1_H4.1_A4.1_[T5C]_[T7G]_F4.1_[T8C]_T4.1 (ssRNA)
RNA: UUUGAUUAAUAUGAUAUCGUUCUUUCUUGUACAGCAUUCUUUCUCGAUAUCAUAUUAAUCUUU
With B27, binding was put at a Kd of 206 nM.

B28: Ic_S2_P4E.1_K4.1_C4.1_H4.1_A4.1_[T5A]_[A6C]_[T7G]_F4.1_[T8C]_[A9C]_T4.1 (ssRNA)
RNA: UUUGAUUAAUAUGAUAUCGUUCUUUCUUGUAACGCCUUCUUUCUCGAUAUCAUAUUAAUCUUU
The molecule B28 had an equilibrium dissociation constant (Kd) of 851 nM.

B29: Ic_S2_P4E.1_K4.1_C4.1_H4.1_A4.1_[T5C]_[T7C]_F4.1_[A9C]_T4.1 (ssRNA)
RNA: UUUGAUUAAUAUGAUAUCGUUCUUUCUUGUACACUCUUCUUUCUCGAUAUCAUAUUAAUCUUU
In the case of B29, the Kd was 5.21 nM.

B30: Ic_S2_P4E.1_K4.1_C4.1_H4.1_A4.1_[T5A]_[A6C]_[T7C]_F4.1_[A9C]_T4.1 (ssRNA)
RNA: UUUGAUUAAUAUGAUAUCGUUCUUUCUUGUAACCUCUUCUUUCUCGAUAUCAUAUUAAUCUUU
For the molecule B30, binding was characterised by a dissociation constant (Kd) of 44.4 nM.

B31: Ic_S2_P4E.1_K4.1_C4.1_H4.1_A4.1_[T5C]_[T7C]_F4.1_[T8C]_T4.1 (ssRNA)
RNA: UUUGAUUAAUAUGAUAUCGUUCUUUCUUGUACACCAUUCUUUCUCGAUAUCAUAUUAAUCUUU
With B31, the Kd was determined as 14 nM. For UCUCUUUGUAGUUAUCUCUU (ssRNA) [Ib_S1_P3E.1_K3.1_C3.1_H3.1_A3.1_[T5G]_[A6T]_F3.1_T3.1], binding was put at a Kd of 1020 nM. Take UCUCUUUGUACGUAUCUCUU (ssRNA) [Ic_S1_P3E.1_K3.1_C3.1_H3.1_A3.1_[T5C]_[A6G]_F3.1_T3.1]: binding was put at a Kd of 149 nM.
